In the RNAGym collection of RNA variant scans (doi:10.7554/elife.80360) one finds self-cleavage data, which are given here for 64 variants.

Sequences and labels used below:
B1: HDV Ribozyme (parent)
chain: GGCCGGCAUGGUCCCAGCCUCCUCGCUGGCGCCGGCUGGGCAACAUUCCGAGGGGACCGUCCCCUCGGUAAUGGCGAAUGGGACCCA

The data set covers variants of B1. Put plainly: self-cleavage, relative activity (ratio to wild type); higher = more cleavage; co-transcriptional.
Take GGCCGACAUGGUCCCCGCCUCCUCGCUGGCGCCGGCUGGGCAACAUUCCGAGGGGACCGUCCCCUCGGUAAUGGCGAAUGGGACCCA: the self-cleavage turned out to be 0.111.
GGCCCGCAUGGUCCCAGCCCCCUCGCUGGCGCCGGCUGGGCAACAUUCCGAGGGGACCGUCCCCUCGGUAAUGGCGAAUGGGACCCA: the self-cleavage turned out to be 0.0875.
As to GGCCUGCAUGGUCCCAGCCUCCUCGCAGGCGCCGGCUGGGCAACAUUCCGAGGGGACCGUCCCCUCGGUAAUGGCGAAUGGGACCCA, the self-cleavage is 0.443.
As to GGCGGGCAUGGUCCCAGCCUCCUCGCUGGCGCCGGCUGGACAACAUUCCGAGGGGACCGUCCCCUCGGUAAUGGCGAAUGGGACCCA, the self-cleavage is 0.237.
Consider GGCAGGCAUGGUCCCAGCCUCCUCGCUGGCGCCGGCUGGCCAACAUUCCGAGGGGACCGUCCCCUCGGUAAUGGCGAAUGGGACCCA, for which the self-cleavage was found to be 0.0511.
Turning to GGCCGGCAUGGUCCCAGCCUCCUCGCUGGCGACGGCUGGGCAACAUUCCGAGGGGACCGUCCCCUCUGUAAUGGCGAAUGGGACCCA, the self-cleavage is 0.232.
GGCCGGCAUGGUCCCAGCCUCCUCGCUGGCGCCGGCUGAGCAACAUUCCGAGGGGACCGUCCCCUCGGUAAUGGCGAAUGGUACCCA: the self-cleavage worked out at 0.0536.
For the variant GGCCGGCAUGGUCCCAGCCUCCCCGCUGGUGCCGGCUGGGCAACAUUCCGAGGGGACCGUCCCCUCGGUAAUGGCGAAUGGGACCCA, the self-cleavage stood at 0.755.
In the case of GGCCGGCAUGGUCCCAGCCUCAUCGCUGGCGCCGGCUGGGCAACAUUCCGAGGAGACCGUCCCCUCGGUAAUGGCGAAUGGGACCCA, the self-cleavage stood at 0.197.
Regarding GGCCGGCAUGGUCCCAGCCUCCUCGCUGGCGCAGGCUGGCCAACAUUCCGAGGGGACCGUCCCCUCGGUAAUGGCGAAUGGGACCCA, the self-cleavage came out at 0.217.
To GGCCGGCAUUGUCCCAGCCUCCUCGCCGGCGCCGGCUGGGCAACAUUCCGAGGGGACCGUCCCCUCGGUAAUGGCGAAUGGGACCCA belongs 0.554; to GGCCGGCAUGGUCCCAGCCUCCUCGCUGUCGCCGGCUGGGCACCAUUCCGAGGGGACCGUCCCCUCGGUAAUGGCGAAUGGGACCCA, 0.136; to GGCCGGCAUGGUCCCAACCUCCUCGCUGGCGCCGGCUGGGCAUCAUUCCGAGGGGACCGUCCCCUCGGUAAUGGCGAAUGGGACCCA, 0.237.
In the case of GGCCGGCAUGGUCCCAGCCUCCUCGCUGGCGCCGGCUGGGCAACAUUCGGAGGGGACCGCCCCCUCGGUAAUGGCGAAUGGGACCCA, the self-cleavage was 0.831.
The value for GGCCGGCAUGGUCCCAGCCUCCUCGCUGGCGCCGGCUGGGCAACAUUCCGAGUGUACCGUCCCCUCGGUAAUGGCGAAUGGGACCCA was 0.915; that for GGCCGGCAUGCUCCCAGCCUCUUCGCUGGCGCCGGCUGGGCAACAUUCCGAGGGGACCGUCCCCUCGGUAAUGGCGAAUGGGACCCA was 0.0817; that for GGCCGGCAUGGUCCCAGCCUCCUCGCUGGCGCCGGCUGGGCAACAUUCCGAGGGGACCGUCCGCUCGGUAAUGGCGAAAGGGACCCA was 0.856.
Take GGCCGGCAUGGUCCCAGCCUCCUCGCUGGCGCCGCCUGGGCAACAUUCCGAGGGGACCGUCCCCUCGGUAAUGGCGAAUCGGACCCA: the self-cleavage was 0.0992.
Regarding GGUCGGUAUGGUCCCAGCCUCCUCGCUGGCGCCGGCUGGGCAACAUUCCGAGGGGACCGUCCCCUCGGUAAUGGCGAAUGGGACCCA, the self-cleavage turned out to be 0.529.
Turning to GGCCUGCAUGGUCCCAGCCUCCUCGCUGGCGCCGGCUGGGCAACAUUCUGAGGGGACCGUCCCCUCGGUAAUGGCGAAUGGGACCCA, the self-cleavage turned out to be 0.791.
In the case of GGCCGGCAUGGUCCCAGCCUCCUCGCUGACGCCGGCUCGGCAACAUUCCGAGGGGACCGUCCCCUCGGUAAUGGCGAAUGGGACCCA, the self-cleavage was 0.0292.
Consider GGCCGGCAUGGUCCCAGCCUCCUCGCUGGCGCCGGCUGGGCAACAUGCCGAGGGGACGGUCCCCUCGGUAAUGGCGAAUGGGACCCA, for which the self-cleavage is 0.831.
On to GGCCGGCAUGGGCCCAGCCUCCUCUCUGGCGCCGGCUGGGCAACAUUCCGAGGGGACCGUCCCCUCGGUAAUGGCGAAUGGGACCCA, for which the self-cleavage amounted to 0.0573.
On to GGCCGGCAUGGUCCCAGCCUCCUCGCUGGCGCCGGCUGGGCAACAUUCCGAGGGGACCGUCCCCUCGGUAAUGGCGAAUGGGAGCGA, for which the self-cleavage turned out to be 0.522.
With GGCCGGCAUGGUCCCAGCGUCCUCGCUGGCGCCGGCUGGGCAACAUUCCGAGGGGACCGUCCCAUCGGUAAUGGCGAAUGGGACCCA, the self-cleavage was found to be 0.0528.
Regarding GGCCGGCAUGGUCCCAGCCUCCUCGCUGGCGGCGGCUGGGCAACAGUCCGAGGGGACCGUCCCCUCGGUAAUGGCGAAUGGGACCCA, the self-cleavage is 0.
On to GGCCGGCAUGGUCCCAGCCUCCUCGCUGGCGCCGGCUGGGCAGCAUUCCGAGGGGACCGUCCCCUCCGUAAUGGCGAAUGGGACCCA, for which the self-cleavage was found to be 0.465.
On to GGGCGGCAUGGUCCCAGCCUCCUCGCUGGCGCCGGCUGGGCAACAUUCCGAGGGGACCGUCCCCUCGGUAAUGGCGAAAGGGACCCA, for which the self-cleavage is 0.491.
The value for GGCCGGCAUGCUCCCAGCCUCCUCGCUGGCGCCGGCUGGGCAACAUUCCGAGGGGACCGUCCCGUCGGUAAUGGCGAAUGGGACCCA was 0.514; that for GGCCGGCAUGGUCCCAGCCUCCUCGCUGGCGCCGGCUGGGCAACAUUCCAAGGGCACCGUCCCCUCGGUAAUGGCGAAUGGGACCCA was 0.81; that for GGCCGGCAUGGUCCCAGCCUCCUCGCCGGCGCCUGCUGGGCAACAUUCCGAGGGGACCGUCCCCUCGGUAAUGGCGAAUGGGACCCA was 0.185.
Consider GGCCCGCAUGGUCCCAGCCUCCUCGCUGGCGCCGACUGGGCAACAUUCCGAGGGGACCGUCCCCUCGGUAAUGGCGAAUGGGACCCA, for which the self-cleavage was found to be 0.113.
To GGCCGGCAUGGUCCCAGCCUCCUCGCUGGCGCCGGCUGGGCAACAUUCCGAGGGGACCGUCCGCUCGGUAAUGGCGAAUGGGAGCCA belongs 0.306.
As to GGCCGGCAUGGUCCCAGCCUCCUCGCUGGCGCCGGCUGGGCAACAUUCCGAGGGGACCGUCCCCUCGGUAAUCGCGAAUGGGACCCG, the self-cleavage was 0.454.
Turning to GGCCGGAAUGGUCCCAGCCUCCUCGCUGGCGCCGGCUGGACAACAUUCCGAGGGGACCGUCCCCUCGGUAAUGGCGAAUGGGACCCA, the self-cleavage was 0.646.
On to GGCCGGCAUGGUCCCAGCCUCCUCGCUGGCGCCGGAUGGGCAACAUUCCGAGGGUACCGUCCCCUCGGUAAUGGCGAAUGGGACCCA, for which the self-cleavage was found to be 0.124.
As for GGCCGGCACGGUCCCAGCCUCCUCGCUGGCGCCGGCUGGGCAACAUUCCGAGGGUACCGUCCCCUCGGUAAUGGCGAAUGGGACCCA, the self-cleavage worked out at 1.2.
In the case of GGCCGGCAUGGUCCCAGCCGCCUCGCUGGCGCCGGCUGGGCAACAUUCCGAGGGGACCGUCCCCUCGGUAAUGGCGAUUGGGACCCA, the self-cleavage is 0.
To GGCCGGCAUGGUCCCAGCCUCCUCGCUGGCACCGGCUGGUCAACAUUCCGAGGGGACCGUCCCCUCGGUAAUGGCGAAUGGGACCCA belongs 0.112.
For the variant GGCCGACAUGGUCCCAGCCUCCUCGCUGGCGCCGGCUGGGCAACAUUCCGAGGGGACCGUCCCCUCGGUAAUGGCGAAUGAGACCCA, the self-cleavage is 0.282.
For GGCCGGCAUGGUCCCAGCCUCCUCGCUGGCGCGGGCUGGGCAACAUUCAGAGGGGACCGUCCCCUCGGUAAUGGCGAAUGGGACCCA, the self-cleavage is 0.119.
To GGCCGGCAUGGUCCCAGCCUCCUCGAUGGCGCCGGCUGGGCAACAUUCCGAGGGGACCGUCCCCUCUGUAAUGGCGAAUGGGACCCA belongs 1.04; to GGCCGGCAUGGUCCCAGCCUCCUCGCUGGCGCCGGCUGGGCAACAUUCCGAGGGGACCGUCCCCUCGGUAAUGCCGAAUGGAACCCA, 0.166; to GGCCGGCAUGGUCCCAGCCUCCUCGCUGGCGCCGGCUGGGCAACAUUCCGAGGGGACCGUCCCCUCGGUAAAGGCGAAUUGGACCCA, 0.251.
Turning to GGCCGGCAGGGUCCCAGCCUCCUCGCUGGCGCCAGCUGGGCAACAUUCCGAGGGGACCGUCCCCUCGGUAAUGGCGAAUGGGACCCA, the self-cleavage turned out to be 0.344.
Regarding GGCCGGCAUGGUCCCAGCCUCCUCGCUUGCGCCGGCUGGGCAACAUUCCGAGGGGACCGUCCCCUCGGUAAUGGCGAGUGGGACCCA, the self-cleavage worked out at 0.158.
On to GGCCGGCAUGGUCCCAGCCUCCUCGCUGGCGCCGGCUGGGCAACAUUCCGAGGGGAACGUCCCCUCGGGAAUGGCGAAUGGGACCCA, for which the self-cleavage came to 0.675.
Regarding GGCCGGCAUGGUCCCAGCCGCCUCGCUGGCGCCGGCGGGGCAACAUUCCGAGGGGACCGUCCCCUCGGUAAUGGCGAAUGGGACCCA, the self-cleavage is 0.
The value for GGCCGGCAUGGUCCCAGCCUCCUCGCUGGCGCCGGCUGGGCAACAUUCCGACGCGACCGUCCCCUCGGUAAUGGCGAAUGGGACCCA was 0.564; that for GGCCGGCAUGGUCCCAGCCUCCUCGCUGGCGCCGGCUGGGCAACAUCCCGAGGGGACCGUCCCCUCGGUAAUGGCGAAUGGGCCCCA was 0.554; that for GGCCGGCAUGGUCCCAGCCUCCUCGCUGGCGCCGGCUGGGCAACAUUCCGAGGGGACCGUCCACUCGGUAAUCGCGAAUGGGACCCA was 0.332.
To GGCCGGCAUGGUCCCCGCCUCCUCGCUGGCGCCGGCGGGGCAACAUUCCGAGGGGACCGUCCCCUCGGUAAUGGCGAAUGGGACCCA belongs 0.0923.
The value for GGCCGGCAUGGUCCCAGCCUCCUCGCUGGCGGCGGCUGGGCACCAUUCCGAGGGGACCGUCCCCUCGGUAAUGGCGAAUGGGACCCA was 0.0536.
In the case of GGCCGGCAUUGUCCCAGCCUCCUCGCUGGCGCCGGCUGGGCAACAUUCCGAGGGGACCGUCCCCUCGGUAAUGGCCAAUGGGACCCA, the self-cleavage is 0.963.
Take GGCCGGGAUGGUCCCAGCCUCCUCGCUGGCGCCGGCUGGGCAACAUUCCGAGGGGACCGUACCCUCGGUAAUGGCGAAUGGGACCCA: the self-cleavage turned out to be 0.486.
As for GGCCGGCAUGGUCCCAGCCUCCUCGCUGGCGCCGGCUGGGCAAGAUUCCGAGGGGACUGUCCCCUCGGUAAUGGCGAAUGGGACCCA, the self-cleavage is 0.751.
Regarding GGCCGGCAUGGUCCCAGCCUCCUCGCUGGCGCCGGCGGGGCAACAUUCCGAGGGGACCGUCCCCUCGGUAAUGGCGAGUGGGACCCA, the self-cleavage came to 0.
The value for GGCCGGCAUGGUCCCAGCCUCCUCGGUGGCGCCGGCUGGGCAACAUUCCGAGGGGACCGUCCCCUCGGUAAUGGCGAAUGUGACCCA was 0.567; that for GGGCGGCAUGGUCCCAGCCUCCUCGCUGGCGCCGGCUGGGCCACAUUCCGAGGGGACCGUCCCCUCGGUAAUGGCGAAUGGGACCCA was 0.128.
To GGCCGGCCUGGUCCCAGCCUCCUCGCUGGCGCCGGCUGGGCAACAUUCCGAGGGGACCGUCCCCUCGGUAAUGGCGAAUCGGACCCA belongs 0.133; to GGCCGGCAUGGGCCCAGCCUCCUCGCUGGCGCCGGCUGGGCAACAUUCCGAGGGGACCGUCCCCACGGUAAUGGCGAAUGGGACCCA, 1.06.
As for GUCCGGCAUGGUCCCAGCCACCUCGCUGGCGCCGGCUGGGCAACAUUCCGAGGGGACCGUCCCCUCGGUAAUGGCGAAUGGGACCCA, the self-cleavage stood at 0.0563.
The value for GGCCGCCAUGGUCCCAGCCUCCUCGCUGGCGCCGGCUGGGCAACAUUCCGAGGGGACCGUCCCCUCGGUAAUGGCUAAUGGGACCCA was 0.604.
With GGCCGGCAUGGUCCCAGCCUCCUCGCUAGCGCCGGCUGGGCAACAUUCCGAGGGGACCGUCCCCUCGGUAAUGGCGAAUGGGUCCCA, the self-cleavage stood at 0.0308.
